In the DeepSol protein solubility set:

assay: soluble on expression in E. coli; label from the status in PepcDB or PDB records

Soluble on expression in E. coli, not soluble:
VIRIGTRGSLLATTQAATVRDALIAGGHSAELVTISTEGDRSMAPIASLGVGVFTTALREAMEAGLVDAAVHSYKDLPTAADPRFTVAAIPPRNDPRDAVVARDGLTLGELPVGSLVGTSSPRRAAQLRALGLGLEIRPLRGNLDTRLNKVSSGDLDAIVVARAGLARLGRLDDVTETLEPVQMLPAPAQGALAVECRAGDSRLVAVLAELDDADTRAAVTAERALLADLEAGCSAPVGAIAEVVESIDEDGRVFEELSLRGCVAALDGSDVIRASGIGSCGRARELGLSVAAELFELGARELMWGVRH
MIFFSVALTTLLVGLSNGCFCPPVISPSCGCGGGGYSSYSGGGYGGGYGGGAINGYATFYRDLTPFRQPYYQTASYPQYQQGPAQSLQQMYQLPNPRYIQPQAPRPQYISRPAPRPAPAPYQPPRVQERPYVQPAAPVAELAETRKNTLHDNGYGEEIERTTYTPVVTAAPVYETDAPTIVTQAPAVEEVPDFDETPVKKGEKDEFYYAYYDDKGNKVGDSRSGTTFAPENVIVEEEATVAPAPASIHMDVTTERVEVANENYDDVVEETQVPVRTSLSPSYTPEVVTSSTVLFMEPRVEAKTVAPAAHENTEVVYEDETVEYEDDGHSETSELPSTKKPQSAEFKRTVQDNQILVDAAENTGEGYRRRNAVNGVRIVKRFRHDERKIHSN
MSLNQTFDKENLESKNTQNLQKSKNPTSQLSKTILKEEFNFLPNDVEINWKGRVLVIGDIHGDLKSLITSLFLSGVINSNLDWIAKNTLLIQLGDVVDRGSHALQIYKLFNKLKSQAPSLGSKFVGLLGNHEVMNLCGQLHYVTDEDFQTYGGRDNRTFEWSKEGFVGKYLRTMKLAIRVNDSLYVHAGLLPKYAKLGLDKLDKLSNDLLEGDFCDFYSSLFFVEDGPLWTRDISLGEEEKACKLVDETLQILGLSRMVVGHTIQHDNRINIKCDNKLILADTGFSEAIYGKPCMLEILYHNDNPDPSNYKSFHPYSEGHHHHHH
MRPIEEFVYVGNQVIVPDQASLMRCYYPIIGGEGYALYQYFVAFYDNGNHRHKFATILNHLNFGMQPLQESLAVLTAVDLLAFYHSPQGIYVVELKSPLSIEQFLKHAVYSSLLEQKIGEPAVDALKPTSLHGLQDLSKRFSDVFTDERLAQKSVSEIKPKNSFDLISFRNRMQADGLVFTDEKTDVPEIYKLSETYDMNWYDTYLLSKKTAVNHRIIVKRMQVQLEQAQAQKLGGDSALTETEKKILKAVKSGKPVDYLQSAKGPGGTVTNSEKKILTDLAQRGFMDEVINLMVAYSLGRTRSTNVNREYISKVANDFDFKKIVTAEQGLLALRSGYDKKSQRAKDDSKKKTNVPSWSDPDYDNQTNQADQAKLDEIRRRALAKLEKG
MRRILVLTKNILVEQTFQQQLQHLNYEVFCTNCCEETIEHELTFFNYFDAIVLSETLSQNDCLRLLGSLSSLEKPIYRRSQSMCNKREAEIWQERGIIRWLGLKDSLEDIREKIDTVDQSFAEVTAELLDDQVKKIRFTKNEQRFLKILYQHAHEGLDRDQICRLLWQKEPDASTKSQLSFVCKRVKQKFSDAGMNEEIITTYWGKGYQINEQILPYLEQTLFETAQ
MGSDKIHHHHHHMNEGKILSGLLAPHPPHLVYGENPPQNEPRSQGGWEPLRWAYDQVRENIEHLKPDVLIVHSPHWITQVGHHFLGVPRLTGRSVDPIFPNLFRYDFGMNVDVELAEACCEEATKLGLVSKMMRNPSFRVDYGTITTLHMVRPQWDIPVVGISANNTPYYLNTKEGLGEMDLLGRATREAIRKTGRRAVLLASNTLSHWHFHEEPALPEDMSKEHPERYDGYLWDVRMIELMRKGHMKEVFELLPQFIEEAFAEIKSGAFTWMHAAMGYPELAGKLHGYGTVIGTGNAVIEWNLEDVGLSRLESVA
MVSRKRRAAQIESSRKGVASIRARCDMEASCSSSQENEASRASTSQCSSPKNLKMENVTILPKTLKLIHDDPKSQVIVSIQFEIEDTKKKISAAILNFNISKKANNAIRSERKRIVATILKTRKHVERFRRLWKKEKKKKEHSEILYKKSQLSKQETIAKFPPMFR
MKSMEIDVEHIFDCLDRYGKGELTEKQLTKGVTDDEKMFLIMHQGLLGGNTDSEEEFNVLDWLGEEESFFMIVEINENLCRKAESILEEIGVEMPDVIESFLKQLVETKQLPVVVND
MMSYALVLAGNRLITSGALGTNAAAIRGAMRADPNLLTVILPQSLERQPRESRQQLDKVMHLVEKPENDHLPLAEASSLCNQEIIARCQQLICFAFHDSHTLLQTCELAEEQHKVVTLFYFDLEHHHHHH
MGSDKIHHHHHHMETRKLAVFVDLATTQNYSRSAERMFLSQSTISKYIMALERDWQVQLFERAHRQVTLTRIGQQLLPRAQAILREERQLQQVLAANTAHNAQSLVVQGLPSLAQYQAFHIITAFTKRYPEVKLQFSEASVDRLAHALDHTNVDIVFTRIFGDQPNNYDVLLNETDQFVVLVPKDDPLAQQAEISLSMLAHESILLLKDTIGEDNPLFSAFQKMHTPQMVYDGQRIDLILEMLNQGDGVSVVMARSFDLTGFDNIKAIPLTPTIRSQMAFMKRPDNHAAVVAKFWAFATKYSQSLSD
VVTSVADENVASRIASWGTGPAPDPRLDYAHAHLKGRRGRSPARPNAPIGARSFAVGRKICRVERFTLLEHGFVGHALHRVPCAGLVALVMSACSLAVCREVGNYAQRRVGRFAFFEQTFVRHALTPRCSRTDSKTSYTQLNRICKFPPHWV
MGSDKIHHHHHHMKKLRVPHRTKSARVVQELVRLAAGLAASGSRVEDAFWENCLTAKIHAQLRTGDDQNLESALDQLYDTDPGGYSEFMYAIEAAIECSIFTRGNHTYDVLMLAVPMLTWSRFSIPSGLIAESVLSELRGQLQVQVLADDAQLALADCLFSPDQLPRGYHLTHELARKLWSTAVTGQRDLHMNPRQLPETGRFLSDTRYLLGGIAVPQGKPMFRWQQGTAGEHKGSNVSALQFSKEQILHAWQTHGTAVLLPLFQGCAFELLMPDGFFSAWRAADRLARPYSVRATVDFLETTLGISPDRLRAVIAPFYDQWLEEYRIGFTLKDRDSVLYGIIWGLVGDEDENTDSVAQIEAALRECGVTQTILLQEHFLLEYCEECGGPLFPNVNGEIVHAEFPEEGEVAPIHLH
MSLTSQVSSTTEQADEPVVGEQRKPAGAKDVRRLDRVIIRFAGDSGDGMQLTGDRFTSETASFGNDLSTLPNFPAEIRAPAGTLPGVSSFQLHFADHDILTPGDAPNVLVAMNPAALKANVSDLPRGAEVIVNTDEFTKRAMQKVGYGTSPLEDGSLDGYSVHPVPLTTLTVEALKEFELSRKEAERSKNMFALGLLSWMYHRPTEGTEKFLTTKFAKKPAIAAANIAAFRAGWNFGETTEDFAVSYEVAPAQSAFPAGTYRNISGNLALSYGLIAASRQADLPLYLGSYPITPASDILHELSKHKNFGVRTFQAEDEIAGIGAALGAAFGGSLAVTTTSGPGVALKSETIGLAVSLELPLLVVDIQRGGPSTGLPTKTEQADLLQAMYGRNGEAPVPVVAPRTPADCFEAAIEAARIALTYRTPVFLLSDGYLANGSEPWRIPETDGLPDLRVRFAQGPNHTLDDGTEVFWPYKRDPGTLARPWAIPGTPGLEHRIGGIEKQDGTGNISYDPANHDFMVRTRQAKIDGIDVPDIEVDDPDGASALVLGWGSTYGPITAAVRRLRTAGESIAQAHLRHLNPFPSNLGAVLKGYDKVVIPEMNLGQLATLIRAKYLVDAHSYNQVNGMPFKAEQLATALKEAIDEGHHHHHH
MSLEASLVKLSEQELTSLNYAFQQMRKPLQTINYDYAVWDRTYSYMKSNSASAKRYYEKHEYPDDTFKSLKVDGVFIFNRTNQPVFSKGFNHRNDIPLVFELTDFKQHPQNIALSPQTKQAHPPASKPLDSPDDVPSTHGVIATRYGPAIYSSTSILKSDRSGSQLGYLVFIRLIDEWFIAELSQYTAAGVEIAMADAADAQLARLGANTKLNKVTATSERLITNVDGKPLLKLVLYHTNEGHHHHHH
MTEQKNKTSLIEFPCTFPLKVMGAVHPEFEQAVLDTVRLHAPDTQAHHITTRPSSKGNYTGATVQVKVENQEQLDNIYRALTSHELVKVVL
MTKKKVYNKRKRKEASIRVLEAIREKRKQQLAENARLEAEQAEQDVAPEPIDVQDPVINAGNIVEDAEPLNVNPSPPQPRKFNFRVANLEIARQAKISQNLMKTSETASTSSPVRQQVKTEIVPRVSQRTIVKTQALPRVNAPVLSSVPAKNPLPPKFVYINTAGLKRKRDDDKNTPSTSNSITLNPSSRGDQTQFIVHLQRTIERLEKEKAALTEKLTMREDEIKVFSVEFVNIQKENVKLMKENKAKESQISNQSIQVRNSWKFADLFKKELQKSRKDVSEVKWKIDKIEKKVGIKKPTPRKKPDVKLINPEDISLMSDRTQDGEDSSDFGSPLAKYLKPDQPSTSSACYGKPFYFESTSSSSRKPITASPGPPGRTQISDQLNTGEVRYVVNSGKPFNFSSESNSRNLKLIPGYIKRPEFRYIKPEGFTSASYKAQSEGMSSFLKTGSSATPENSKKSAHFDMPDISSTPYKSHVVVESDEMNSSSSTIGGFESEKKDNGALGSQKSPMPDIATALHNIFDSKEVQSSSSTTGSSAPPENSKKSDHFDMPDISSTLYRSRVEPISSSSSGSTSTSAPRYVPKPIAQPARYAIPSPGALNALRRPPEWKGQRRHAPSYVKSRESVTFRGCSRFPVTSPHFAKAHLEPVTDGKDDSKIVKYRFVPKRPDFDGEREHKK

Soluble on expression in E. coli, soluble:
MSRGPSSAVLPSALGSRKLGPRSLSCLSDLDGGVALEPRACRPPGSPGRAPPPTPAPSGCDPRLRPIILRRARSLPSSPERRQKAAGAPGAACRPGCSQKLRVRFADALGLELAQVKVFNAGDDPSVPLHVLSRLAINSDLCCSSQDLEFTLHCLVPDFPPPVEAADFGERLQRQLVCLERVTCSDLGISGTVRVCNVAFEKQVAVRYTFSGWRSTHEAVARWRGPAGPEGTEDVFTFGFPVPPFLLELGSRVHFAVRYQVAGAEYWDNNDHRDYSITCRNHALHMPRGECEESWIHFI
ARPCIPKSFGYSSVVCVCNATYCDSFDPPTFPALGTFSRYESTRSGRRMELSMGPIQANHTGTGLLLTLQPEQKFQKVKGFGGAMTDAAALNILALSPPAQNLLLKSYFSEEGIGYNIIRVPMASCDFSIRTYTYADTPDDFQLHNFSLPEEDTKLKIPLIHRALQLAQRPVSLLASPWTSPTWLKTNGAVNGKGSLKGQPGDIYHQTWARYFVKFLDAYAEHKLQFWAVTAENEPSAGLLSGYPFQCLGFTPEHQRDFIARDLGPTLANSTHHNVRLLMLDDQRLLLPHWAKVVLTDPEAAKYVHGIAVHWYLDFLAPAKATLGETHRLFPNTMLFASEACVGSKFWEQSVRLGSWDRGMQYSHSIITNLLYHVVGWTDWNLALNPEGGPNWVRNFVDSPIIVDITKDTFYKQPMFYHLGHFSKFIPEGSQRVGLVASQKNDLDAVALMHPDGSAVVVVLNRSSKDVPLTIKDPAVGFLETISPGYSIHTYLWHRQ
MSLKRFIDDHRDVHGVEPICKVLPIAPSTYYAHAARRSDPELRSARAKTDEALMPEIRRVWDENFQVYGVRQLWRQMRREQFAVARCTVQRLMKRQGLRGVIRGKAVRTTVSDAKAPCPLDHVNRQFTSDRPNALWVSDFTDVSTWQGWICVAFVIDVFARRIVGWKASPSMRTELVLDALEQALHARKPVGSERMIHHSDRGVQYVSIRYTERLAEAGLEPSVGSVSDSYDNALAETINGLCKAEVIHRKSSWRTREEVEWATLTWVDWFNNRRVLEPIGNIPPAEAEANYYLISPDLQLQHLRAYREGHHHHHH
MTTATSERQKTLLFKAAERQWKEEFAGKETDIRKVDCNIYKGILYQLEIRQVFLDTSLSLKKLSALLETNQTYLSNVVNKYFGCNLKELVNTYRVEYAKELLCSRRCALTELPCSCGFASKSAFYSAFSRIVGVSPLSYQTQERRLEHHHHHH
